{"source": "the RNAGym collection of RNA variant scans (doi:10.1073/pnas.2313332121)", "parents": {"B1": {"name": "TPR 5TU (parent)", "chain": "GGAUCUUCUCGAUCUAACAAAAAAGACAAAUCUGCCACAAAGCUUGAGAGCAUCUUCGGAUGCAGAGGCGGCAGCCUUCGGUGGCGCGAUAGCGCCAACGUUCUCAACUAUGACACGCAAAACGCGUGCUCCGUUGAAUGGAGUUUAUCAUG"}}, "note": "Fewer inactive variants are shown than the library holds."}
{"variants_of": "B1", "test": "polymerase ribozyme fitness, log enrichment relative to wild type (log ratio); higher = more active; in vitro selection for triplet polymerase activity", "how_it_was_run": "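A single round of triplicate in vitro selection, including frozen incubation at −7 °C, was applied to PCR-built, transcribed mutant libraries of each subunit of a heterodimeric triplet polymerase ribozyme. Illumina sequencing of input and output libraries retained genotypes with ≥10 input reads and ≥1 read per output. Fitness is the base-2 logarithm of genotype enrichment divided by wild-type enrichment, from inverse-variance-weighted replicate averages.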"}
{"variant": "GGAUCUUCUCGAUCUAACAUAAAAGACAACUCUGCCACAAAGCUUGAGAGCAUCUUCGGAUGCAGAGGCAGCAGCCUUCGGUGGCGCGAUAGCGCCAACGUUCUCAACUAUGACACGCAAAACGCGUGCUCCGUUGAAUGGAGUUUAUCAUG", "polymerase ribozyme fitness (log ratio)": "≤ -4.2"}
{"variant": "GGAUCUUCUCGAUCUAACAUAAAAGACAAAUCUGCCACAAAGCUUGCGAGCAUCAGCGGAUGCAGAGGCGGUAGCCUUCGGUGGCGACAUAGCGCCAACGUUCUCAACUAUGACGCGCAAAACGCGUGCUCCGUUGAAUGGAGUUUAUCAUG", "polymerase ribozyme fitness (log ratio)": "≤ -4.2"}
{"variant": "GGAUCUUCUCGAUCUAACAUAAAAGACAGAUCUGCCACAAAACUUGAGAGCAUCUUAGGAUGCAGAGGCGGCAGCCUUCGGUGGCGCGAUGGCCCCAACGUUCUCAACUAUGACACGCAAAACGCGUGCUCCGUUGAAUGGAGUUUAUCAUG", "polymerase ribozyme fitness (log ratio)": "≤ -4.2"}
{"variant": "GGAUCUUCUCGAUCUAACAUAAAUGACAAAUCUGCCACAAAGCUUGAGAGCAUCUUCGGAUGCAGAGGCGGCAGCCUUCGGUCGCGCGAUAGGGCCAACGUUCUCAACUAUGACACGCAAAACGCGUGCUCCGUUGAAUGGAAUUUAUCAUG", "polymerase ribozyme fitness (log ratio)": "≤ -4.2"}
{"variant": "GGAUCUUCUCGAUCUAACAUAAAAGACAGAUCUGCCACAAAGUUUGAGAGCAUCUUCGGAUGCAGAGGCGGCAGUCGUCGGUGGCGCGAUAGCCCCAACGUUCUCAACGAUGUCACGCAAAACGCGUGCUCCGUUGAAUGGAGUUUAUCAUG", "polymerase ribozyme fitness (log ratio)": "≤ -4.2"}
{"variant": "GGAUCUUCUCGAUCUAACAUAAAAGACAAAUCUGCCACAACGCUUGAGAGCAUCUUCGGAUGCAGAGGCGGCAGCCUUCGGUGGCGCGAUAGCGCCAACGUUCUCAACUAUGACACGCAAAACGCGUGCUCCGUUGAAUGGAGUUUAUCAUG", "polymerase ribozyme fitness (log ratio)": -2.09}
{"variant": "GGAUCUUCUCGAUCUAACAUAAAAGACAAAUCUGCCACAAUGCUUGAGAGCAUCUUCGGAUGCAGAGGCGGCAGCCUUCGGUGGCGCGAUAGCGCCAACGUUCUCAACUAUGACACGCAAAACGCGUGCUCCGUUGAAUGGAGUUUAUCAUG", "polymerase ribozyme fitness (log ratio)": -2.17}
{"variant": "GGAUCUUCUCGAUCUAACAUAAAAGCCAAAUUUGCCACAAAGCUUGAGAGCAUCUUCGGAUGCCGAGGCGGCAGGCUGCGGUGGCGCGAUAGCGCCAACGUUCUCAACUAUGACACGCAAAAUGCGUGCUCCGCUGAAUGGAGUCUAUCAUG", "polymerase ribozyme fitness (log ratio)": "≤ -4.2"}
{"variant": "GGAUCUUCUCGAUCUAACAUAAAAGACAAUUCUGCCACGAAGCUUGAGAGCAUCUUCGGAUGCAGAGGCGGCAGACUUCGGUGGCGCGAUAGCGCCAACGUUCUCAACUAUGACACGCAAAACGCGUGCUCCGUUGAAUGGAGUUUAUCAUG", "polymerase ribozyme fitness (log ratio)": "≤ -4.2"}
{"variant": "GGAUCUUCUCGAUCUAACAUAAAAGACAAAUCUGCCACAAAGCUUGGGAGCAUCUUCGGAUGCAGAGGCGGCAGCCUUCGGUGGCGCGUUAGCGCCAACGUUCUUAACUAUGACACGCAAAACGCGUGCUCCGUUGAAUGGAGUUUAUCAUG", "polymerase ribozyme fitness (log ratio)": -2.65}
{"variant": "GGAUCUUCUCGAUCUAACAUAAAAGUCAAAUCUGCCACAAAGCUUGAGAGCAUCUUCGGAUGCAGAGGCGGCAGCCUUCGGUCGCGCGAUAGCGCCAACGUUCUCAACUAUGACACGCAAAACGCGUGCUCCGUUGAAUGGAGUUUAUCAUG", "polymerase ribozyme fitness (log ratio)": "≤ -4.2"}
{"variant": "GGAUCUUCUCGAUCUAACAUAAAUGACAAAUCUGCCACAAAGCUUGAGAGCAUCUUCCGAUGCAGAGGCGGCAGCCUUCGGUGGCGCGAUAGCGCGAACGUUCUCAACUAUGACACGCGAAACGCGUGCUCCGUUGAAUGGAGUUUAUCAUG", "polymerase ribozyme fitness (log ratio)": "≤ -4.2"}
{"variant": "GGAUCUUCUCGAUCUAACAUAAAAGACAAAUCUGCCGCAAAGCUUGAGAGCAUCUUCGGAUGCAGAGGCGGCAGCCUUCGGUGGCGCGAUAGCGCCAACGUUCUCAACUAUGACACGCACAACGCGUGCUCCGUUGAAUGGCGUUUAUCAUG", "polymerase ribozyme fitness (log ratio)": "≤ -4.2"}
{"variant": "GGAUCUUCUCGAUCUAACAUAAAAGACAAAUCUGCCACACAGCUUGAGAGCAUCUUCGAAUGCAGAGGCGGCAGCCCUCGGUGGCGCGAUAGCGCCAACGCUCUCAAAUAUGACACGCAAAACGCGUGCUCCGUUGAAUGGAGUUGAUCAUG", "polymerase ribozyme fitness (log ratio)": "≤ -4.2"}
{"variant": "GGAUCUUCUCGAUCUAACAUAAAAGACAAAUCUGCCACAAUGCUUGAGAGCAUCUUCGAAUGCAGAAGCGGCAGCCUUCGGUGGCCCGAUAGCGCCAACGUUCUCAACUAUGACACGCAAAACGCGUGCUCCGUUGAAUGGAGUUUAUCAUG", "polymerase ribozyme fitness (log ratio)": "≤ -4.2"}
{"variant": "GGAUCUUCUCGAUCUAACAUAAUAGACAAAUCUGCCACAAAACUUGAGAGCAUCUUCGGAUGCAGAAGCGGCAGCCUUCGGUGGCGCGAUAGUGCCAACGUUCUCAACUAUGACACGCAAAACGCGUGCUCCGUUGAAUGGAGUUUAUCAUG", "polymerase ribozyme fitness (log ratio)": "≤ -4.2"}
{"variant": "GGAUCUUCUCGAUCUAACAUAAAAGACAAUUCUGCCACUAAGCUUGAGAGCAUCUUCGGAUACAGAGACGGCAGCCUUCGGUGGCGCGAUAGCGCCAACGUUCUCAACUAUGACACGCAAAACGCGUGCUCCGUUGAAUUGAGUUUAUCAUG", "polymerase ribozyme fitness (log ratio)": "≤ -4.2"}
{"variant": "GGAUCUUCUCGAUCUAACAUAAAAGUCAAAUCUGCCACACAGCAUGAGAGCAUCUUCGGAUGCAGAGGCGGCAGCCUUCGGUGGCGCGAUAGCGCCAACGUUCUGAACUAUGAUAAGCAAAACGCGUGCUCCGUUGAAUGGAGUUUAUCAUG", "polymerase ribozyme fitness (log ratio)": "≤ -4.2"}
{"variant": "GGAUCUUCUCGAUCUAACAUAAACGACAAAUCUGCCACAAAGCUUGAGCGCAUCUUCGGAUGCAGAGGCGAAAGCCUUCGGUGGCGCGAUAGUGCCAACGUUGUCAACCAUGACACGCAAAACGCGUGCUCCGUUGAAUGGAGUUUAUCAUG", "polymerase ribozyme fitness (log ratio)": "≤ -4.2"}
